The values that follow come from patent US20090300780A1 (AbbVie / Abbott, published 2009).

This assay has as its target T1, murine NGF purified from submandibular glands (murine, UniProt P01139 122-239, limits assumed).
T1 construct: Native protein purified from tissue; also called NGF neurotrophin
As to the kind of experiment: ELISA, murine NGF coated at 10 ug/ml, COS supernatants with IgG1, detection by anti-human Cgamma, OD450. On the procedure: For immobilization on plastic, 96 well Maxi sorb plates were incubated at 4° C. overnight with a solution containing the respective ligands of the two antibodies (the purified recombinant immunoadhesin TrkA Camel and the murine NGF purified from submandibular glands) at a concentration of 10 μg/ml in 0.1M pH 9.6 sodium carbonate buffer.
After one hour of blocking with PBS containing 3% milk (MPBS) at ambient temperature, concentrated supernatants were incubated with serial dilutions (1:2, 1.20; 1:200) and in parallel also with the supernatant of non transfected COS cells (negative control).

T1 sequence (P01139 122-239 limits assumed): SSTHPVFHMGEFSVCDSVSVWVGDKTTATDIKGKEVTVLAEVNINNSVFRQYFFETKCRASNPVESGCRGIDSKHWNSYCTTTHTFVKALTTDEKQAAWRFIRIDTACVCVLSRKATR

B1: alpha D11 humanized antibody (Hum alpha D11), IgG1 form (antibody, V domains shown)
VH: EVQLVESGGGLVQPGGSLRLSCAASGFSLTNNNVNWVRQAPGKGLEWVGGVWAGGATDYNSALKSRFTISRDNSKNTAYLQMNSLRAEDTAVYYCARDGGYSSSTLYAMDAWGQGTLVTVSS
VL: DIQMTQSPSSLSASVGDRVTITCRASEDIYNALAWYQQKPGKAPKLLIYNTDTLHTGVPSRFSGSGSGTDYTLTISSLQPEDFATYFCQHYFHYPRTFGQGTKVEIK
notes: also called Hum αD11; Hum alpha D11 VH / Hum alpha D11Vk
Consider B1, for which the binding result is on record as “binds”.
